# Laboratory results published in patent US10117916B2, “Peptides and combination of peptides for use in immunotherapy against CLL and other cancers” (immatics biotechnologies GmbH, priority 2015, dated 2018).
# Biological target: HLA-A*02:01 (Homo sapiens, UniProt P04439, D140Y/D185E/D98H/E176V/E277Q/G131W/G231S/I119V/I121R/I166T/I218V/L300P/L318F/N151K/N90K/P208A/P217A/Q86G/Q94H/R138H/R169H/T345S)
# Assay: MHC binding assay: UV-ligand exchange with β2m ELISA (peptide exchange yield)
# Settings: MHC class I binding score; binding to HLA-A*02:01 ranged by peptide exchange yield (UV-ligand exchange, β2m ELISA)
# Source text: Candidate peptides for T cell based therapies according to the present invention were further tested for their MHC binding capacity (affinity). The individual peptide-MHC complexes were produced by UV-ligand exchange, where a UV-sensitive peptide is cleaved upon UV-irradiation, and exchanged with the peptide of interest as analyzed. Only peptide candidates that can effectively bind and stabilize the peptide-receptive MHC molecules prevent dissociation of the MHC complexes. To determine the yield of the exchange reaction, an ELISA was performed based on the detection of the light chain (β2m) of stabilized MHC complexes. The assay was performed as generally described in Rodenko et al. (Rodenko et al., 2006).
# 96 well MAXISorp plates (NUNC) were coated over night with 2 ug/ml streptavidin in PBS at room temperature, washed 4× and blocked for 1 h at 37° C. in 2% BSA containing blocking buffer. Refolded HLA-A*02:01/MLA-001 monomers served as standards, covering the range of 15-500 ng/ml. Peptide-MHC monomers of the UV-exchange reaction were diluted 100 fold in blocking buffer. Samples were incubated for 1 h at 37° C., washed four times, incubated with 2 ug/ml HRP conjugated anti-β2m for 1 h at 37° C., washed again and detected with TMB solution that is stopped with […]. Absorption was measured at 450 nm. Candidate peptides that show a high exchange yield (preferably higher than 50%, most preferred higher than 75%) are generally preferred for a generation and production of antibodies or fragments thereof, and/or T cell receptors or fragments thereof, as they show sufficient avidity to the MHC molecules and prevent dissociation of the MHC complexes.
row,Substance,Peptide Exchange
1,31 (ELMHGVAGV; listed as Homo sapiens) [compound 31],″+++″ (≥50 = +++)
2,251 (LLYDNVPGA; listed as Homo sapiens) [compound 251],″+++″ (≥50 = +++)
3,328 (VLLPQETAEIHL; listed as Homo sapiens) [compound 328],″++++″ (≥75% = ++++)
4,312 (LLYNSTDPTL; listed as Homo sapiens) [compound 312],″+++″ (≥50 = +++)
5,109 (KLWEGLTELV; listed as Homo sapiens) [compound 109],″+++″ (≥50 = +++)
6,357 (FLIQEIKTL; listed as Homo sapiens) [compound 357],″+++″ (≥50 = +++)
7,294 (ALLDQLHTLL; listed as Homo sapiens) [compound 294],″++++″ (≥75% = ++++)
8,110 (LLFDHLEPMEL; listed as Homo sapiens) [compound 110],″+++″ (≥50 = +++)
9,116 (LLIGATMQV; listed as Homo sapiens) [compound 116],″+++″ (≥50 = +++)
10,194 (YLDNVLAEL; listed as Homo sapiens) [compound 194],″++++″ (≥75% = ++++)
11,376 (VLYNQRVEEI; listed as Homo sapiens) [compound 376],″+++″ (≥50 = +++)
12,355 (FIWPMLIHI; listed as Homo sapiens) [compound 355],″+++″ (≥50 = +++)
13,305 (LLFPQIEGIKI; listed as Homo sapiens) [compound 305],″+++″ (≥50 = +++)
14,7 (ALLERTGYTL; listed as Homo sapiens) [compound 7],″+++″ (≥50 = +++)
15,241 (ILGDILLKV; listed as Homo sapiens) [compound 241],″+++″ (≥50 = +++)
16,259 (RLLDEQFAVL; listed as Homo sapiens) [compound 259],″+++″ (≥50 = +++)
17,162 (SMKDDLENV; listed as Homo sapiens) [compound 162],″++″ (≥20% = ++)
18,29 (AVLQAVTAV; listed as Homo sapiens) [compound 29],″+++″ (≥50 = +++)
19,369 (RLLDLENSLLGL; listed as Homo sapiens) [compound 369],″+++″ (≥50 = +++)
20,153 (SLLAELHVL; listed as Homo sapiens) [compound 153],″+++″ (≥50 = +++)
21,297 (FLVEPQEDTRL; listed as Homo sapiens) [compound 297],″+++″ (≥50 = +++)
22,182 (VLLSVPGPPV; listed as Homo sapiens) [compound 182],″+++″ (≥50 = +++)
23,292 (AAALIIHHV; listed as Homo sapiens) [compound 292],″+++″ (≥50 = +++)
24,98 (SLIKYFLFV; listed as Homo sapiens) [compound 98],″+″ (≥10% = +)

row,Substance,Peptide Exchange
1,70 (FVPDTPVGV; listed as Homo sapiens) [compound 70],″+++″ (≥50 = +++)
2,371 (SLADDSVLERL; listed as Homo sapiens) [compound 371],″+++″ (≥50 = +++)
3,219 (ALLNLLESA; listed as Homo sapiens) [compound 219],″+++″ (≥50 = +++)
4,336 (YMAVTTQEV; listed as Homo sapiens) [compound 336],″++++″ (≥75% = ++++)
5,353 (ATPMPTPSV; listed as Homo sapiens) [compound 353],″++″ (≥20% = ++)
6,40 (FLDEDDMSL; listed as Homo sapiens) [compound 40],″++″ (≥20% = ++)
7,155 (SLMLEVPAL; listed as Homo sapiens) [compound 155],″+++″ (≥50 = +++)
8,99 (ILIFHSVAL; listed as Homo sapiens) [compound 99],″+++″ (≥50 = +++)
9,130 (LLVLIPVYL; listed as Homo sapiens) [compound 130],″+″ (≥10% = +)
10,141 (QILSEIVEA; listed as Homo sapiens) [compound 141],″++″ (≥20% = ++)
11,300 (ILLNPAYDVYL; listed as Homo sapiens) [compound 300],″+++″ (≥50 = +++)
12,159 (SLQEEKLIYV; listed as Homo sapiens) [compound 159],″+++″ (≥50 = +++)
13,370 (SIFASPESV; listed as Homo sapiens) [compound 370],″+++″ (≥50 = +++)
14,374 (VLSVITEEL; listed as Homo sapiens) [compound 374],″+++″ (≥50 = +++)
15,273 (VLGEYSYLL; listed as Homo sapiens) [compound 273],″+++″ (≥50 = +++)
16,373 (TLLADQGEIRV; listed as Homo sapiens) [compound 373],″++″ (≥20% = ++)
17,120 (AIDAALTSV; listed as Homo sapiens) [compound 120],″+++″ (≥50 = +++)
18,75 (GLSIFAQDLRL; listed as Homo sapiens) [compound 75],″++″ (≥20% = ++)
19,311 (LLVDVEPKV; listed as Homo sapiens) [compound 311],″+++″ (≥50 = +++)
20,227 (FLAEASVMTQL; listed as Homo sapiens) [compound 227],″+++″ (≥50 = +++)
21,62 (GIIDGSPRL; listed as Homo sapiens) [compound 62],″+++″ (≥50 = +++)
22,318 (NLQVTQPTV; listed as Homo sapiens) [compound 318],″+++″ (≥50 = +++)
23,188 (VMGDIPAAV; listed as Homo sapiens) [compound 188],″++″ (≥20% = ++)
24,271 (VIRNIVEAA; listed as Homo sapiens) [compound 271],″++″ (≥20% = ++)

row,Substance,Peptide Exchange
1,145 (SALDTITTV; listed as Homo sapiens) [compound 145],″+++″ (≥50 = +++)
2,45 (FLPELPADLEA; listed as Homo sapiens) [compound 45],″+++″ (≥50 = +++)
3,88 (ILDEIGADVQA; listed as Homo sapiens) [compound 88],″+++″ (≥50 = +++)
4,303 (ILSQPTPSL; listed as Homo sapiens) [compound 303],″+++″ (≥50 = +++)
5,11 (ALFTFSPLTV; listed as Homo sapiens) [compound 11],″+++″ (≥50 = +++)
6,278 (YLDDLLPKL; listed as Homo sapiens) [compound 278],″+++″ (≥50 = +++)
7,315 (LVYEAPETV; listed as Homo sapiens) [compound 315],″+++″ (≥50 = +++)
8,136 (NLDKLWTLV; listed as Homo sapiens) [compound 136],″++″ (≥20% = ++)
9,138 (NLLDIDAPVTV; listed as Homo sapiens) [compound 138],″+++″ (≥50 = +++)
10,163 (SQLDISEPYKV; listed as Homo sapiens) [compound 163],″+++″ (≥50 = +++)
11,238 (GLVETELQL; listed as Homo sapiens) [compound 238],″+++″ (≥50 = +++)
12,295 (ALLQKLQQL; listed as Homo sapiens) [compound 295],″+++″ (≥50 = +++)
13,341 (LLAELPASVHA; listed as Homo sapiens) [compound 341],″+++″ (≥50 = +++)
14,127 (LLPTAPTTV; listed as Homo sapiens) [compound 127],″+++″ (≥50 = +++)
15,166 (TLDPNQVSL; listed as Homo sapiens) [compound 166],″++″ (≥20% = ++)
16,334 (YLLEEKIASL; listed as Homo sapiens) [compound 334],″+++″ (≥50 = +++)
17,119 (VLPAEFFEV; listed as Homo sapiens) [compound 119],″+++″ (≥50 = +++)
18,97 (LLFATQITL; listed as Homo sapiens) [compound 97],″++″ (≥20% = ++)
19,61 (FVYFIVREV; listed as Homo sapiens) [compound 61],″+++″ (≥50 = +++)
20,118 (RLLILENILL; listed as Homo sapiens) [compound 118],″+++″ (≥50 = +++)
21,34 (YLPYIFPNI; listed as Homo sapiens) [compound 34],″+++″ (≥50 = +++)
22,21 (ALWAGLLTL; listed as Homo sapiens) [compound 21],″+++″ (≥50 = +++)
23,55 (FMEPTLLML; listed as Homo sapiens) [compound 55],″+++″ (≥50 = +++)
